{
  "source": "patent US20230129812A1",
  "about": "“COMPOSITIONS AND METHODS FOR TREATING PULMONARY HYPERTENSION” (Acceleron Pharma Inc., priority 2020, published 2023)",
  "molecules": {"B1": {"name": "ALK4-Fc:ActRIIB-Fc heterodimer: heteromeric complex of extracellular domains of human ActRIIB and human ALK4, each separately fused to an Fc domain with a linker (protein)", "chain 1": "GRGEAETRECIYYNANWELERTNQSGLERCEGEQDKRLHCYASWRNSSGTIELVKKGCWLDDFNCYDRQECVATEENPQVYFCCCEGNFCNERFTHLPEAGGPEVTYEPPPTAPTGGGTHTCPPCPAPELLGGPSVFLFPPKPKDTLMISRTPEVTCVVVDVSHEDPEVKFNWYVDGVEVHNAKTKPREEQYNSTYRVVSVLTVLHQDWLNGKEYKCKVSNKALPAPIEKTISKAKGQPREPQVYTLPPSRKEMTKNQVSLTCLVKGFYPSDIAVEWESNGQPENNYKTTPPVLKSDGSFFLYSKLTVDKSRWQQGNVFSCSVMHEALHNHYTQKSLSLSPGK", "chain 2": "SGPRGVQALLCACTSCLQANYTCETDGACMVSIFNLDGMEHHVRTCIPKVELVPAGKPFYCLSSEDLRNTHCCYTDYCNRIDLRVPSGHLKEPEHPSMWGPVETGGGTHTCPPCPAPELLGGPSVFLFPPKPKDTLMISRTPEVTCVVVDVSHEDPEVKFNWYVDGVEVHNAKTKPREEQYNSTYRVVSVLTVLHQDWLNGKEYKCKVSNKALPAPIEKTISKAKGQPREPQVYTLPPSREEMTKNQVSLTCLVKGFYPSDIAVEWESNGQPENNYDTTPPVLDSDGSFFLYSDLTVDKSRWQQGNVFSCSVMHEALHNHYTQKSLSLSPG"}},
  "key": {"BMP10": {"target": "T1, BMP10 (Homo sapiens, UniProt O95393)", "T1 sequence (O95393 317-424)": "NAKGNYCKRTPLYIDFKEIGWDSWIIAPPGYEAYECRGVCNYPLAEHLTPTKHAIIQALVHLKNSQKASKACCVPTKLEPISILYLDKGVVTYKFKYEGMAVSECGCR", "assay": "A-204 Reporter Gene Assay (Example 13)", "type": "cell-based", "source_text": "(§1) In addition, an A-204 Reporter Gene Assay was used to evaluate the effects of ALK4-Fc:ActRIIB-Fc heterodimer and ActRIIB-Fc:ActRIIB-Fc homodimer on signaling by activin A, activin B, GDF11, GDF8, BMP10, and BMP9. Cell line: Human Rhabdomyosarcoma (derived from muscle). Reporter vector: pGL3(CAGA)12 (as described in Dennler et al, 1998, EMBO 17: 3091-3100). The CAGA12 motif is present in TGFβ responsive genes (PAI-1 gene), so this vector is of general use for factors signaling through Smads. An exemplary A-204 Reporter Gene Assay is outlined below. • Day 1: Split A-204 cells into 48-well plate. • Day 2: A-204 cells transfected with 10 ug pGL3(CAGA)12 or pGL3(CAGA)12(10 ug)+pRLCMV (1 ug) and Fugene. • Day 3: Add factors (diluted into medium+0.1% BSA). Inhibitors need to be pre-incubated with Factors for about one hr before adding to cells. About six hrs later, cells are rinsed with PBS and then lysed.\n(§2) Following the above steps, a Luciferase assay was performed."}, "BMP9": {"target": "T2, BMP9 (Homo sapiens, UniProt Q9UK05)", "T2 sequence (Q9UK05 320-429)": "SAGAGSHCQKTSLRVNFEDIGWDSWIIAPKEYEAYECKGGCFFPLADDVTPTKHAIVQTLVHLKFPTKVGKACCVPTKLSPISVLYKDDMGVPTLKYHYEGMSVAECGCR", "assay": "A-204 Reporter Gene Assay (Example 13)", "type": "cell-based", "source_text": "as §1, §2"}, "activin B": {"target": "T3, activin B (Homo sapiens, UniProt P09529)", "T3 sequence (P09529 293-407)": "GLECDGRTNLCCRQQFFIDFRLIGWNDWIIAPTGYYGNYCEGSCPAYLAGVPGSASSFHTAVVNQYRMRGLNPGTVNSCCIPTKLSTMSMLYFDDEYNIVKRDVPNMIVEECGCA", "assay": "A-204 Reporter Gene Assay (Example 13)", "type": "cell-based", "source_text": "as §1, §2"}, "[1]": {"test_system": "rat model of pulmonary arterial hypertension (PAH), monocrotaline-induced", "assay": "Monocrotaline (MCT) rat model of pulmonary arterial hypertension", "type": "in vivo, Sprague Dawley rats", "details": "MCT rats, compared to monocrotaline treated rats (vehicle)", "experimental": "The effects of an ActRIIA-mFc fusion protein (ActRIIA-mFc homodimer as described in Example 1), an ALK4-Fc-ActRIIB-Fc heterodimer (as described in Examples 12 and 13), and sildenafil (a phosphodiesterase-5 inhibitor approved for the treatment of PAH) were examined in a rat model of pulmonary arterial hypertension (PAH). In this model, Sprague Dawley rats received a […] injection of monocrotaline (MCT) to induce PAH 24 hours prior to start of therapy.\nRats were separated into different treatment groups (10 mice per group): 1) treatment with MCT (60 mg/kg administered i.p. as a single dose at day 1 of study) and Tris buffered saline (i.p. as 1 ml/kg, every three days) (vehicle treatment group), 2) treatment with an ActRIIA-mFc polypeptide (10 mg/kg administered i.p. every three days) and MCT (60 mg/kg administered i.p. as a single dose at day 1 of study), 3) treatment with an ALK4-Fc:ActRIIB-Fc heterodimer (10 mg/kg administered i.p. every three days) and MCT (60 mg/kg administered i.p. as a single dose at day 1 of study), 4) treatment with sildenafil (30 mg/kg administered orally twice daily) and MCT (60 mg/kg administered i.p. as a single dose at day 1 of study), and 5) control rats (Tris buffered saline administered i.p. as 1 ml/kg, every three days). Rats were treated for 28 days. Body weights were recorded prior to first dose on Day 1 and then weekly throughout the study.\nOn day 28, rats were anesthetized by an intraperitoneal injection of ketamine/xylazine (80/10 mg/kg). An incision was made in the neck, and a jugular vein was isolated and ligated anteriorly. A fluid-filled pressure catheter was introduced into the right jugular vein to measure pulmonary artery pressure (PAP). Another incision was made in the inguinal region, and femoral artery was isolated and ligated anteriorly. […] Mean arterial pressure and right PAP were monitored using the Notocord HEM (Croissy sur Seine, Frnace) v3.5 data capture system for approximately 5-10 minutes until stable measurements were obtained. During the measurements, rats were maintained at approximately 37° C. on a heating pad and body temperature was monitored throughout the procedure with a rectal temperature probe. […] Hypertrophy was assessed, in part, by calculating RV/LV+S. The lungs were also weighed.\nSimilar trends were observed on vessel muscularity based on histopathologic scoring. […] Pulmonary arterioles from vehicle treated rats were determined to be 62.3% completely muscularized, 36.4% partially muscularized, and 1.4% non-muscularized. […] Histopathological scoring of smooth muscle hypertrophy of pulmonary arterioles were also recorded as follows: 0 (normal), 1 (minimal), 2 (mild), 3 (moderate), or 4 (marked)."}},
  "data": [
    {"molecule": "B1", "values": [
      {"measurement": "inhibition of BMP10 signaling", "setting": "BMP10", "result": "significantly reduced"},
      {"measurement": "inhibition of BMP9 signaling", "setting": "BMP9", "result": "significantly reduced"},
      {"measurement": "inhibition of activin B signaling", "setting": "activin B", "result": "potent inhibitors"},
      {"measurement": "improvement in body weight", "setting": "[1]; 28 days", "result": "+5.1%"},
      {"measurement": "decrease of right heart hypertrophy", "setting": "[1]; day 28, RV/LV+S", "result": 39.6, "unit": "%"},
      {"measurement": "decrease of lung weight", "setting": "[1]; day 28", "result": 19.0, "unit": "%"},
      {"measurement": "reduction of elevated PAP", "setting": "[1]; day 28", "result": 44.6, "unit": "%"}
    ]}
  ]
}
